# Results as given in patent US20090111753A1, “Nogo-A Polypeptide Fragments, Variant Nogo Receptor-1 Polypeptides, and Uses Thereof” (Yale University, priority 2004, published 2009).
# Residue numbers refer to the chain shown, from its start.
# T1: AP-Nogo66 (Homo sapiens, UniProt Q9NQC3)
# T1 construct: made in house; NgR mutants: COS-7
# T1 sequence (Q9NQC3 1055-1120 limits assumed): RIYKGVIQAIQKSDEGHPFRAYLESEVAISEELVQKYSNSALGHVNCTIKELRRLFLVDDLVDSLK
# T2: AP-Lingo-1 (Homo sapiens, UniProt Q96FE5)
# T2 construct: made in house; NgR mutants: COS-7
# T2 sequence (Q96FE5 40-538 limits assumed): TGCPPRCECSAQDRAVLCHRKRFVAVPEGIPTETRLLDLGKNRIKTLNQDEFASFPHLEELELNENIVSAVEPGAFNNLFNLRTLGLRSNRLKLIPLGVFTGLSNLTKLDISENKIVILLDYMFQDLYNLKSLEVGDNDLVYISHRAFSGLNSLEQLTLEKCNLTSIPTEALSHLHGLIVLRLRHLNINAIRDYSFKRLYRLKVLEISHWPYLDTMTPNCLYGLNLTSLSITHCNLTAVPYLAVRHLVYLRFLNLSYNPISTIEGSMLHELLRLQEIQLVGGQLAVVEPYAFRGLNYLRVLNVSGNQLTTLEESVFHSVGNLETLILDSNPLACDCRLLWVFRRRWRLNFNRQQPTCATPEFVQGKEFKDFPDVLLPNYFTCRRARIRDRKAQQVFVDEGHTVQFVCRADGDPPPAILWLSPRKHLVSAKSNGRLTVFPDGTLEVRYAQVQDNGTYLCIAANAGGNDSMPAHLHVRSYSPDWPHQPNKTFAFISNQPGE
# T3: AP-B4C (Homo sapiens, UniProt Q9NQC3)
# T3 construct: a.a; 950-1018 (AmNg B4C); made in house; host or cells: AP ligand: HEK293T conditioned medium; NgR mutants: COS-7
# T3 sequence (Q9NQC3 950-1018): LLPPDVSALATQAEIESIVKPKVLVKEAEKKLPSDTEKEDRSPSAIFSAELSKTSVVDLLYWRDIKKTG
# B1: 256, 259, 284: human NgR1 mutant, listed residues mutated to alanine (protein)
# chain: CPGACVCYNEPKVTTSCPQQGLQAVPVGIPAASQRIFLHGNRISHVPAASFRACRNLTILWLHSNVLARIDAAAFTGLALLEQLDLSDNAQLRSVDPATFHGLGRLHTLHLDRCGLQELGPGLFRGLAALQYLYLQDNALQALPDDTFRDLGNLTHLFLHGNRISSVPERAFRGLHSLDRLLLHQNRVAHVHPHAFRDLGRLMTLYLFANNLSALPTEALAPLRALQYLALNANPWVCDCRARPLWAWLQKFRGSSSAVPCSLPQRLAGRDLKRLAANDLQGCAVATGPYHPIWTGRATDEEPLGLPKCCQPDAADKASVLEPGRPASAGNALKGRVPPGDSPPGNGSGPRHINDSPFGTLPGSAEPPLTAVRPEGSEPPGFPTSGPRRRPGCSRKNRTRSHCRLGQAGSGGGGTGDSEGSGALPSLTCSLTPLGLALVLWTVLGPC
# B2: 237, 256, 284: human NgR1 mutant, listed residues mutated to alanine (protein)
# chain: B1 chain with N211A, A233D
# B3: 108, 131: human NgR1 mutant, listed residues mutated to alanine (protein)
# chain: B1 chain with E82A, R105A, A230R, A233D, A258E
# B4: 89, 90: human NgR1 mutant, listed residues mutated to alanine (protein)
# chain: B1 chain with H63A, S64A, A230R, A233D, A258E
# B5: 63, 65, 87, 89: human NgR1 mutant, listed residues mutated to alanine (protein)
# chain: B1 chain with F37A, H39A, W61A, H63A, A230R, A233D, A258E
# B6: 61, 108, 131: human NgR1 mutant, listed residues mutated to alanine (protein)
# chain: B1 chain with R35A, E82A, R105A, A230R, A233D, A258E
# B7: 95, 97: human NgR1 mutant, listed residues mutated to alanine (protein)
# chain: B1 chain with R69A, D71A, A230R, A233D, A258E
# B8: 87, 89: human NgR1 mutant, listed residues mutated to alanine (protein)
# chain: B1 chain with W61A, H63A, A230R, A233D, A258E
# Tested on: NgR ligands
# Test: Binding of alanine substituted NgR mutants to NgR ligands, summary categories
# Conditions: AP-Nogo66, AP-B4C, AP-B4C66, AP-Lingo-1, AP-OMgp and AP-MAG; compared to wild type NgR
# Procedure, shortened: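 AP-fused ligands (Nogo66, B4C, B4C66, Lingo-1, OMgp, MAG) were assayed against 74 Ala-substitution mutants of human NgR1 targeting surface charged patches, glycosylation sites and predicted binding regions, plus the D259N variant. Outcomes were grouped into categories: binding lost for all ligands, retained for all, or ligand-selective.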
row,ligand binding category of NgR mutant (Table II),Molecule
1,Differential binding,B1
2,Differential binding,B2
3,Differential binding,B3
4,Differential binding,B4
5,Differential binding,B5
6,Differential binding,B6
7,Differential binding,B7
8,Differential binding,B8

# Target: T1, AP-Nogo66
# Test: Binding of AP-Nogo66 to COS-7 cells expressing NgR mutants
# Design: key: ++: WT level; +: weaker than wild type; trace binding; −: no binding
# Conditions: AP-Ng66 5 nM; level of binding compared to wild type NgR
# Protocol: (§1) FIG. 4A. […] Binding of AP or AP fused NgR ligands to COS-7 cells expressing different NgR mutants as indicated. The concentrations of ligands applied were: AP, 30 nM; AP-Ng66, 5 nM; AP-Ng33, 10 nM; AP-B4C, 10 nM; AP-B4C66, 0.5 nM; AP-Lingo-1, 10 nM; AP-OMGP, 10 nM; AP-MAG, 30 nM. These concentrations are close to the binding Kd of these proteins to NgR so that any […] is reflected linearly in staining.
# (§2) FIG. 4B. AP binding of NgR ligands to NgR mutants expressed as percentage of wild type NgR. AP after incubation with AP fused ligands, AP bound to COS-7 cells expressing NgR or NgR mutants were stained and measured.
# (§3) To better define how multiple ligands bind to the NgR protein, we examined a series of Ala-substituted NgR for ligand binding activity. NgR mutagenesis was done using the Quick Change Multisite Directed Mutagenesis Kit (Stratagene catalog #200514). Human NgR1 was used as a template. Ala substitutions were generated for each of the charged residues predicted to be solvent accessible at the surface of the ligand binding domain of NgR (Barton, W. A., et al., Embo J. 22:3291-3302 (2003); He, X. L., et al., Neuron 38:177-185 (2003)). We generated mutants in which 1-8 surface residues localized within 5 A of one another were Ala-substituted. Because of the coiling nature of the LRR structure, as residues juxtaposed on the protein surface are commonly separated by approximately 25 residues in the primary structure. In addition to mutations in specific charged surface patches, other mutations were targeted to glycosylation sites and to regions predicted to be involved in ligand binding based on the NgR structure (Barton, W. A., et al., Embo J. 22:3291-3302 (2003); He, X. L., et al., Neuron 38:177-185 (2003)). In addition, a variant corresponding to a human polymorphism was examined (D259N). None of the mutations altered the Leu residues that define the LRR structure itself or the Cys residues critical in the amino and carboxyl terminal capping domains. The vast majority of such Ala surface substitution mutants were expressed as immunoreactive polypeptides with a molecular weight and an expression level indistinguishable from wild type NgR (FIG. 4C and data not shown).
# (§4) This collection of 74 individual NgR mutants was interrogated for AP-Nogo-66, AP-Amino-Nogo-B4C, AP-MAG, AP-OMgp, and AP-Lingo-1 binding. AP-Nogo66, AP-MAG, AP-OMGP and AP-Lingo-1 constructs are described elsewhere (Fournier, A. E., et al., Nature 409:341-346 (2001); Liu, B. P., et al., Science 297:1190-1193 (2002); Mi, S., et al., Nat. Neurosci. 7:221-228 (2004); Wang, K. C., et al., Nature 417:941-944 (2002b)). The properties of the NgR mutants fell into one of three major categories (Table II and FIG. 5). A number of Ala substituted NgR polypeptides bound all of the ligands at wild type levels. […] In addition, a significant extent of the concave surface is dispensable for ligand binding.
# (§5) Binding of Alanine substituted NgR mutants to NgR ligands were compared to wild type NgR and the levels of binding were categorized as ++ (WT level), + (weaker than wild type), tr (trace binding), − (no binding), N/A (not determined). NgR mutant proteins were also subjected to SDS-PAGE and probed by anti-NgR antibodies. Mutants with expression level similar to WT NgR were labeled as “y”.
row,Ng66,Molecule
1,+,B1
2,++,B2
3,+,B3
4,+,B4
5,++,B5
6,tr,B6
7,+,B7
8,++,B8

# Tested on: AP-MAG
# Test: Binding of AP-MAG to COS-7 cells expressing NgR mutants
# Design: key: ++: WT level; +: weaker than wild type; trace binding; −: no binding
# Conditions: AP-MAG 30 nM; level of binding compared to wild type NgR
# Protocol: as §1, §2, §3, §4, §5
row,Molecule,MAG
1,B1,−
2,B2,−
3,B3,tr
4,B4,−
5,B5,−
6,B6,−
7,B7,tr
8,B8,+

# Tested on: AP-OMgp
# Test: Binding of AP-OMgp to COS-7 cells expressing NgR mutants
# Design: key: ++: WT level; +: weaker than wild type; trace binding; −: no binding
# Conditions: AP-OMGP 10 nM; level of binding compared to wild type NgR
# Protocol: as §1, §2, §3, §4, §5
row,Molecule,OMgp
1,B1,+
2,B2,+
3,B3,+
4,B4,−
5,B5,+
6,B6,−
7,B7,tr
8,B8,+

# Target: T2, AP-Lingo-1
# Test: Binding of AP-Lingo-1 to COS-7 cells expressing NgR mutants
# Design: key: ++: WT level; +: weaker than wild type; trace binding; −: no binding
# Conditions: AP-Lingo-1 10 nM; level of binding compared to wild type NgR
# Protocol: as §1, §2, §3, §4, §5
row,Lingo-1,Molecule
1,++,B1
2,++,B2
3,−,B3
4,−,B4
5,−,B5
6,−,B6
7,+,B7
8,−,B8

# Tested on: AP-B4C66
# Test: Binding of AP-B4C66 to COS-7 cells expressing NgR mutants
# Design: key: ++: WT level; +: weaker than wild type; trace binding; −: no binding
# Conditions: AP-B4C66 0.5 nM; level of binding compared to wild type NgR
# Protocol: as §1, §2, §3, §4, §5
row,Molecule,B4C-66
1,B1,++
2,B2,++
3,B3,+
4,B4,+
5,B5,++
6,B6,+
7,B7,+
8,B8,++

# Target: T3, AP-B4C
# Test: Binding of AP-B4C to COS-7 cells expressing NgR mutants
# Design: key: ++: WT level; +: weaker than wild type; trace binding; −: no binding
# Conditions: AP-B4C 10 nM; level of binding compared to wild type NgR
# Protocol: as §1, §2, §3, §4, §5
row,B4C,Molecule
1,+,B1
2,++,B2
3,+,B3
4,+,B4
5,++,B5
6,+,B6
7,++,B7
8,++,B8
